From patent US20230295297A1 come the findings set out here.

The target in assay [1] is recombinant human TREM2-DAP12 fusion protein expressed on cells (human). Nature of the assay: FACS, HEKhT2 cells; isotype control.
Assay [2] deals with human TREM2 on primary cells (human) (UniProt Q9NZC2). The experiment in a line: FACS, primary hMAC; isotype control. In general terms: A flow cytometer gives signals particle by particle.
The target is the same in assay [3]. The experiment in a line: FACS, primary hDC; isotype control.
The target of assay [4] is TREM2 protein of the 'Percent APOE binding' column of Table 9B. The experiment in a line: TREM2 binding to APOE with isotype control.
The target of assay [5] is mouse TREM2 on cells (mouse) (UniProt Q99NH8). Nature of the assay: FACS, WT mouse macrophages.
The target in assay [6] is TREM2 protein of the 'Percent APOE binding' column of Table 9B. The experiment in a line: TREM2 binding to APOE with antibody.
Assay [7] has as its target mouse TREM2 on cells (mouse) (UniProt Q99NH8). Nature of the assay: FACS, BWZmT2 cells; isotype control.
Assay [8] has the same target. The experiment in a line: FACS, WT mouse macrophages; isotype control.

Sequence of recombinant human TREM2-DAP12 fusion protein expressed on cells (human) (chain, as listed by the source limits assumed, form in doubt): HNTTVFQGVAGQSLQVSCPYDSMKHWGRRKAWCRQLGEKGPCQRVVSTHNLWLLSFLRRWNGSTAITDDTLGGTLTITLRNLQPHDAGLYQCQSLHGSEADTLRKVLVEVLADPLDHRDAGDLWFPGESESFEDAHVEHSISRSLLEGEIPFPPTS
Sequence of human TREM2 on primary cells (human) (Q9NZC2 19-230): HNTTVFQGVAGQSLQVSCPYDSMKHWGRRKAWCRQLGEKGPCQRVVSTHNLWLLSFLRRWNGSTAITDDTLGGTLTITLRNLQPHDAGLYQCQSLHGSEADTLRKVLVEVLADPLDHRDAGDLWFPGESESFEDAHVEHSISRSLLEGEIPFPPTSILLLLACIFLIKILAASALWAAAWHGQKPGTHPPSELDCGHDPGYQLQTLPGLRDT
Sequence of mouse TREM2 on cells (mouse) (Q99NH8 19-227 limits assumed): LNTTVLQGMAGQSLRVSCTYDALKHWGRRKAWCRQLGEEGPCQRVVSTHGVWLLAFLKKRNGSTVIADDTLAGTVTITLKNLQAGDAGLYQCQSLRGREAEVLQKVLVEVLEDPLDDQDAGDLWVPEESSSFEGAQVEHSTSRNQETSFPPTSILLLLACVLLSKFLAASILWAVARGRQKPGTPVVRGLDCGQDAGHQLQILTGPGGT

Regarding rat IgG2b isotype control antibody, the MFI HEKhT2 in assay [1] was found to be 35 MFI. In addition, the % Positive hMAC in assay [2] was found to be 0.9%. The same substance yielded a % Positive hDC in assay [3] of 0.3%. Further, the Percent APOE binding in assay [4] worked out at 102%.
“commercial anti-TREM2 antibody (R&D Cat #F7E57291)”: in assay [5], the % Positive WT BMMACS amounted to 13.1%. The substance also displayed a Percent APOE binding in assay [6] of 106%.
On to rat IgG2a isotype control antibody, for which the MFI HEKhT2 in assay [1] amounted to 33 MFI. For the same substance, the % Positive hMAC in assay [2] was 10.4%. Besides, the % Positive hDC in assay [3] was 6.2%.
On to mouse IgG2a isotype control antibody, for which the MFI HEKhT2 in assay [1] was found to be 40.3 MFI. In assay [2], this substance showed a % Positive hMAC of 7.9%. The same substance gave a % Positive hDC in assay [3] of 7.3%.
mouse IgG2b isotype control antibody: in assay [1], the MFI HEKhT2 was 13 MFI. For the same substance, the % Positive hMAC in assay [2] came out at 5.3%. Moreover, the % Positive hDC in assay [3] was found to be 6.1%.
Turning to mouse IgG1 isotype control antibody, the MFI HEKhT2 in assay [1] was 16.3 MFI. In assay [2], this substance gave a % Positive hMAC of 2.7%. In assay [7], this substance showed an MFI BWZmT2 of 278 MFI. Further, the % Positive WT BMMACS in assay [8] was found to be 0.574%. The % Positive hDC in assay [3] turned out to be 4.9%. Moreover, the Percent APOE binding in assay [4] amounted to 90.8%.
Consider mouse IgM isotype control antibody, for which the MFI HEKhT2 in assay [1] was found to be 124 MFI. For the same substance, the % Positive hMAC in assay [2] turned out to be 63.7%. In assay [3], this substance yielded a % Positive hDC of 14.9%.
In the same order, the values of rat IgG1 isotype control antibody are 544 MFI, 19.6% and 8.7%.
